Measured values as given in US9926369B2, “Methods for treating hepatocellular cancer by administering an anti-Ang-2 antibody” (Regeneron Pharmaceuticals, Inc., priority 2009, dated 2018).
pKd: −log10 of the molar value.

Legend:
MMT tumors = assay: MMT tumor growth in SCID mice; type: in vivo; settings: H1H685P 12.5 mg/kg, VEGF Trap 5 mg/kg
Method: To provide additional evidence of combination efficacy, the effect of the H1H685P+VEGF Trap combination on the growth of MMT tumors was assessed. 0.5×10^6 MMT cells were implanted subcutaneously into the right hind flank of 6-8 week-old female SCID mice. […] The Fc and H1H685P groups were given 3 doses over 9 days. The VEGF Trap and combination groups were given 4 doses over 12 days. Tumor volumes were measured twice per week over the course of the experiment and tumor weights were measured upon excision of tumors at the end of the experiment (due to their large size, tumors from the Fc and H1H685P groups were collected 3 days before tumors from the VEGF Trap and combination groups). Averages (mean+/−standard deviation) of tumor growth from the beginning of treatment and of tumor weight were calculated for each group. Percent decrease of tumor weight and growth are calculated from comparison to the Fc control group.

[1] = target: T1, hAng-1-WT binding to hTie-2-mFc (Homo sapiens, UniProt Q15389); assay: Biosensor SPR blocking of hAng-1-WT binding to hTie-2-mFc-ecto surface; type: biochemical; settings: for Percent of Neg. Ctrl Binding (hAng-1 WT) / Specific Bound RU (hAng-1 WT): 10 nM hAng-1-WT
T1 sequence (Q15389 20-498 limits assumed): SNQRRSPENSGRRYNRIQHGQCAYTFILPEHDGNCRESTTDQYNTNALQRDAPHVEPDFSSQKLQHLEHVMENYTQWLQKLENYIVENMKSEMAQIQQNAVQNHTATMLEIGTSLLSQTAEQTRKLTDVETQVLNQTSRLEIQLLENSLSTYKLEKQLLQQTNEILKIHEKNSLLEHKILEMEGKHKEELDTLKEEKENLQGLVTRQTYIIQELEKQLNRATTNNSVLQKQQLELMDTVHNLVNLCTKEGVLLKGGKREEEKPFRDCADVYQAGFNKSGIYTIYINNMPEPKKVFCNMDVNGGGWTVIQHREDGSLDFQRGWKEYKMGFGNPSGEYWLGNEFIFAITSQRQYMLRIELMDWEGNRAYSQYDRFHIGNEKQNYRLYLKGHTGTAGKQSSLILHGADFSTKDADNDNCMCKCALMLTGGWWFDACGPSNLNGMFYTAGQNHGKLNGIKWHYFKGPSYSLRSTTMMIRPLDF
Method: In an effort to further assess the ability of selected anti-hAng-2 antibodies to block the binding of Ang-1 to Tie-2, a biosensor surface plasmon resonance experiment was conducted. In this experiment, a human Tie-2 full-length extracellular domain construct (hTie-2-mFc-ecto) was amine-coupled on a BIACORE™ chip to create a receptor coated surface. Selected anti-hAng-2 antibodies and control constructs, at 1 μM (100-fold excess over antigen), were premixed with 10 nM of hAng-1-WT, followed by 60 minutes incubation at 25° C. to allow antibody-antigen binding to reach equilibrium to form equilibrated solutions. The equilibrated solutions were injected over the receptor surfaces at 5 μL/min for 5 minutes at 25° C. Changes in resonance units (RU) due to the binding of the hAng-1-WT to hTie-2-mFc were determined. An irrelevant peptibody construct with no binding to hAng-1 was included in this experiment to establish the 0% blocking baseline, and a human Tie-2-mFc construct was used as a positive control for blocking. The amount of Ang-1 bound to Tie-2 following antibody preincubation, expressed as a percentage of the amount of Ang-1 bound to Tie-2 following negative control preincubation, is shown in Table 20. (A greater amount of Ang-1 binding to Tie-2 signifies a lower degree of antibody blocking).
The foregoing experiment was repeated using different amounts of Ang-2 blockers and controls. In particular, a human Tie-2 full-length extracellular domain construct (hTie-2-mFc-ecto) was amine-coupled on a BIACORE™ chip to create a receptor-coated surface. Selected anti-hAng-2 antibodies and control constructs (50 or 150 nM) were mixed with hAng-2-WT (25 nM) followed by 60 minutes incubation at 25° C. to allow antibody-antigen binding to reach equilibrium. The equilibrated solutions were injected over the receptor surfaces at 10 μL/min for 5 minutes at 25° C. To evaluate the ability of the selected anti-hAng-2 antibodies to block Ang-1-WT binding to hTie-2, a similar procedure was followed except the antibodies were tested at three concentrations (50, 100 or 1000 nM) and incubated with 10 nM of hAng-1-WT. Changes in resonance units (RU) due to the binding of the Ang-2-WT or hAng-1-WT to hTie-2-mFc were determined. An irrelevant antibody with no binding to either angiopoietin was included in these experiments to establish the 0% blocking baseline, and a human Tie-2-mFc construct was used as a positive control for blocking. Results are summarized in Tables 21 (hAng-1 applied to a hTie-2 surface) and 22 (hAng-2 applied to a hTie-2 surface).

hAng-2FD-mFc K-432-N = target: T2, hAng-2FD-mFc K-432-N (Homo sapiens, UniProt O15123, K432N); assay: Ang-2FD-mFc point mutant binding experiment (SPR), K-432-N; settings: K-432-N mutant captured; antibody/peptibody at 100 nM; 25° C.
T2 construct: made in house
T2 sequence (O15123 with tags, fused parts or gaps K432N): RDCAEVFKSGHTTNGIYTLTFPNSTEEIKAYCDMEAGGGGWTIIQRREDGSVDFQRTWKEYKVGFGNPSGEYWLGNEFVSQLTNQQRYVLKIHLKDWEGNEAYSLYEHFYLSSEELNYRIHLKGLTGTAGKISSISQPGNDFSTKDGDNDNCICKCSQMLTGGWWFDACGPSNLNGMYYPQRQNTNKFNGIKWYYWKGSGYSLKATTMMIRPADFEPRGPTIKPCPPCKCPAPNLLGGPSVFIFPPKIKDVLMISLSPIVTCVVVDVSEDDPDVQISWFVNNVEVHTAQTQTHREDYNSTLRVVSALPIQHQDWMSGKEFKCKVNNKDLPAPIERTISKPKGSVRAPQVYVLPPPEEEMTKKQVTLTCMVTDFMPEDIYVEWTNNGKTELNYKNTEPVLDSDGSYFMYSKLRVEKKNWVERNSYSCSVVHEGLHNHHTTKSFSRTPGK
Source text: To further characterize binding between hAng2 and anti-hAng2 mAbs of the invention, seven variant hAng2-FD-mFc proteins were generated, each containing a single point mutation. Amino acids selected for mutation were based on the difference in sequence between hAng-2 and hAng-1 in the region that interacts with hTie-2 (FIG. 1). In particular, amino acids within the fibrinogen-like domain (FD) of Ang-2 which are believed to interact with Tie-2 based on crystal structure analysis, but which differ from the corresponding amino acid in Ang-1, were individually mutated to the corresponding hAng-1 residue. The results of this example indicate the amino acid residues of hAng-2 with which the Ang-2 preferential binding antibodies interact.
In this experiment, each of the seven hAng-2FD-mFc mutant proteins were captured (˜147-283 RU) on an anti-mouse-Fc surface created through direct chemical coupling to a BIACORE™ chip. Then each Ang-2 antibody (or peptibody, as the case may be) at 100 nM was injected over the captured mFc-tagged hAng-2FD protein surface at a flowrate of 50 μl/min for 180 sec, and the dissociation of variant hAng2-FD-mFc and antibody was monitored in real time for 20 min at 25° C.

[2] = 1 μM antibody premixed with 10 nM hAng-1-WT, 25° C.

H1H685P: human anti-Ang-2 antibody, HCVR/LCVR SEQ ID NOs 18/20; also referred to as mAb1 [Antibody H1H685P]
% Decrease in Tumor Growth (MMT tumors): 15%
% Decrease in Tumor Weight (MMT tumors): 11%
Avg Tumor Growth (MMT tumors): 1135 ± 306 mm^3
Avg Tumor Weight (MMT tumors): 1.409 ± 0.314 g
Blocking of binding of human Ang-1 to human Tie-2 (in words) [1]: do not significantly block
Percent of Neg. Ctrl Binding (hAng-1 WT) ([1]; 50 nM antibody or control): 95%
Specific Bound RU (hAng-1 WT) ([1]; 50 nM antibody or control): 299 RU
Percent of Neg. Ctrl Binding (hAng-1 WT) ([1]; 100 nM antibody or control): 95%
Specific Bound RU (hAng-1 WT) ([1]; 100 nM antibody or control): 291 RU
Percent of Negative Control Binding (hAng-1-WT to Tie-2) [1, 2]: 81%
RU (average), hAng-1-WT bound to hTie-2-mFc [1, 2]: 137 RU
Percent of Neg. Ctrl Binding (hAng-1 WT) ([1]; 1000 nM antibody or control): 105%
Specific Bound RU (hAng-1 WT) ([1]; 1000 nM antibody or control): 289 RU
pKd (hAng-2FD-mFc K-432-N): 10.85
RU (hAng-2FD-mFc K-432-N): 152.68 RU
